Measurements taken from US20190359653A1 (Genentech, published 2019).
* marks the point of attachment. Palmitoyl = CCCCCCCCCCCCCCCC(=O)*; Myristoyl = CCCCCCCCCCCCCC(=O)*; Lauroyl = CCCCCCCCCCCC(=O)*; Decanoyl = CCCCCCCCCC(=O)*; Octanoyl = CCCCCCCC(=O)*

Molecular target: T1, FZD7 receptor of HEK293-TB cells (human, UniProt O75084 33-574)
Assay: cell-based or functional assay

Binder | IC50 (nM), TOPbrite reporter assay in HEK293-TB cells stimulated with mWnt3a (50 ng/mL) [nM] | Reduction in fold potency vs. dimer [fold]
Ac-LPSDDAEFWCHVMY-NH2 (also: homodimer via Cys10 disulfide) [dFz7-21-L6A] | 7120 | 642
Ac-LPSDDLEFACHVMY-NH2 (also: homodimer via Cys10 disulfide) [dFz7-21-W9A] | 640 | 58
Ac-LPSDDLEFWCHVAY-NH2 (also: homodimer via Cys10 disulfide) [dFz7-21-M13A] | 913 | 82
Ac-LPSDDLEFWCHVMA-NH2 (also: homodimer via Cys10 disulfide) [dFz7-21-Y14A] | 2960 | 267

Molecular target: T1, FZD7 receptor of HEK293-TB cells
Assay: cell-based or functional assay
Remark: another data set of the same source

Binder | Best Fit IC50 (nM), Wnt3a-mediated β-catenin signaling in HEK293-TB cells (50 ng/mL mWnt3a) [nM]
Ac-SDDLEFWCHVK(Octanoyl)Y-NH2 (also: dimer via disulfide bond at Cys8) [dFz7-21Δ2.M13K (C8)] | 2130
Ac-SDDLEFWCHVK(Decanoyl)Y-NH2 (also: dimer via disulfide bond at Cys8) [dFz7-21Δ2.M13K (C10)] | 1500
Ac-SDDLEFWCHVK(Lauroyl)Y-NH2 (also: dimer via disulfide bond at Cys8) [dFz7-21Δ2.M13K (C12)] | 553
Ac-SDDLEFWCHVK(Myristoyl)Y-NH2 (also: dimer via disulfide bond at Cys8) [dFz7-21Δ2.M13K (C14)] | 607
Ac-SDDLEFWCHVK(Palmitoyl)Y-NH2 (also: dimer via disulfide bond at Cys8) [dFz7-21Δ2.M13K (C16)] | 607
